Data published in article doi:10.1101/2021.02.08.430206 (bioRxiv, 2021).
Positions count from the first letter of the chain named.

T1: N16,27,33Q-ACKR1 mutant (non-glycosylated) (human, UniProt Q16570 1-336, N^16,27,33Q | N^16,27,33Q | N^16,27,33Q)
T1 sequence: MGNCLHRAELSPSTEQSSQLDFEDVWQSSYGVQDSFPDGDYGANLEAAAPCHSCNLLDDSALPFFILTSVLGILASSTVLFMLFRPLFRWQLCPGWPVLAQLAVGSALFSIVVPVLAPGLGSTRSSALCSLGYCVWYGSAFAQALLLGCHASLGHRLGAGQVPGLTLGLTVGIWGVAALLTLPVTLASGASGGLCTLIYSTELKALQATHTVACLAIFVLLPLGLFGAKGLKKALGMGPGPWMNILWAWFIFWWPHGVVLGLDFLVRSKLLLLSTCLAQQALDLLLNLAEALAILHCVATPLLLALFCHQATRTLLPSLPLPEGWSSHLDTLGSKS

T2: ACKR1 treated with PNGase F (deglycosylated ACKR1) (human, UniProt Q16570 1-336, N-glycans removed by PNGase F)
T2 sequence: T1 sequence with Q16N, Q27N, Q33N

T3: gamma-hemolysin component HlgA (S component leukotoxin) of Staphylococcus aureus (Staphylococcus aureus), P0A074
T3 chain: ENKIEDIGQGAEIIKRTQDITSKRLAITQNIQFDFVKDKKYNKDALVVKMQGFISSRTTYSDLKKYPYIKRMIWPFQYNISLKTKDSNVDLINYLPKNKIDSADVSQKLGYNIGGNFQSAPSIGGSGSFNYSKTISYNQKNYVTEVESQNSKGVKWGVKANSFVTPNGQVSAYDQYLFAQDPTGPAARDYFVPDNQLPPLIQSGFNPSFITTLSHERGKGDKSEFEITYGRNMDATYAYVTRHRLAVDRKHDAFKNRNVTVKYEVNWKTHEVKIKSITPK

B1: gamma-hemolysin component HlgA (S component leukotoxin) of Staphylococcus aureus (natural protein)
chain: T3 chain
B2: gamma-hemolysin component HlgB (F component leukotoxin) of Staphylococcus aureus (natural protein)
chain: NAEGKITPVSVKKVDDKVTLYKTTATADSDKFKISQILTFNFIKDKSYDKDTLVLKATGNINSGFVKPNPNDYDFSKLYWGAKYNVSISSQSNDSVNVVDYAPKNQNEEFQVQNTLGYTFGGDISISNGLSGGLNGNTAFSETINYKQESYRTTLSRNTNYKNVGWGVEAHKIMNNGWGPYGRDSFHPTYGNELFLAGRQSSAYAGQNFIAQHQMPLLSRSNFNPEFLSVLSHRQDGAKKSKITVTYQREMDLYQIRWNGFYWAGANYKNFKTRTFKSTYEIDWENHKVKLLDTKETENNK
B3: atypical chemokine receptor 1 (ACKR1), purified, glycosylated wild type (receptor)
chain: T1 sequence with Q16N, Q27N, Q33N
modifications: N-glycosylated at N16, N27 and N33

How the values were obtained:
[1] = molecular target: SNAP-tag-fused ACKR1 receptor (human) (UniProt Q16570); experiment: FRET or BRET
[2] = molecular target: T1, N16,27,33Q-ACKR1 mutant …; experiment: HDX-MS
[3] = molecular target: B2; experiment: native MS
[4] = molecular target: T2, ACKR1 treated with PNGase F …; experiment: native MS
[5] = molecular target: T3, gamma-hemolysin component HlgA (S …); experiment: native MS; details: remark: other sources report otherwise
native MS = molecular target: the molecule itself; experiment: native MS

For “HlgAB, equimolar mixture of HlgA and HlgB (from UniProt P0A074;P0A077) (complex)”, which IC50 [1] is on record?
The IC50 was 6.2 nM.

Does B1 bind [2]?
Result: binds

Does B1 bind [3]?
Result: binds

And the “stoichiometry N” value [4]?
Its value is 1.

What about the relative quantification in the equimolar mixture (HlgA monomer 100%) [5] of the same molecule?
Its relative quantification in the equimolar mixture (HlgA monomer 100%) is 1.5%.

And the stoichiometry N [5]?
Its stoichiometry N is 2.

Does B2 bind [2]?
Result: binds

And the “fold dimer-to-monomer ratio against HlgA” value (native MS)?
The value was 2 fold.

What about the “stoichiometry N” value (native MS) of the same molecule?
Its value is 2.

For B3, which “stoichiometry N” value (native MS) is on record?
Its value is 2.
